Several values for one entry are separate records, joined by “and”; a condition that tells them apart may be missing. Equal values may be shown once.
Molecular target: MCL-1ES, wild type (amino acids 1-197), Flag-tagged (human)
Assay: cross-linking; 293T cells; heavy membrane fraction cross-linked with glutaraldehyde, western blot; increasing MCL-1ES expression; also with MCL-1L over-expressed or knocked down

In the case of “MCL-1ES, wild type (amino acids 1-197), Flag-tagged (natural protein)”, the stoichiometry N is reported as 2 and 3.
